Columns and labels:
Assay in all cases: TurboID proximity labelling, streptavidin pull-down, LC-MS
Conditions in all cases: U2OS stable cell lines; 50 μM biotin for 2 h; read off a plot
HSPA8 = biological target: HSPA8
GATAD2B = GATAD2B (UniProt Q8WXI9)
RAD54L2 = biological target: RAD54L2
FUS = biological target: FUS
PIAS2 = PIAS2 (UniProt O75928)
EXOSC9 = biological target: EXOSC9
ZNF280B = ZNF280B (UniProt Q86YH2)
DAXX = biological target: DAXX
SIMC1 = biological target: SIMC1
RBM22 = biological target: RBM22
XAB2 = XAB2 (UniProt Q9HCS7)
PIAS1 = PIAS1 (UniProt O75925)
SNW1 = SNW1 (UniProt Q13573)
PIAS4 = PIAS4 (UniProt Q8N2W9)
TRIM24 = TRIM24 (UniProt O15164)
TRIM33 = TRIM33 (UniProt Q9UPN9)
PIAS3 = PIAS3 (UniProt Q9Y6X2)
ZNF280A = biological target: ZNF280A
IRF2BP2 = IRF2BP2 (UniProt Q7Z5L9)
Chain of UniProt Q7Z5L9 (Q7Z5L9 whole entry): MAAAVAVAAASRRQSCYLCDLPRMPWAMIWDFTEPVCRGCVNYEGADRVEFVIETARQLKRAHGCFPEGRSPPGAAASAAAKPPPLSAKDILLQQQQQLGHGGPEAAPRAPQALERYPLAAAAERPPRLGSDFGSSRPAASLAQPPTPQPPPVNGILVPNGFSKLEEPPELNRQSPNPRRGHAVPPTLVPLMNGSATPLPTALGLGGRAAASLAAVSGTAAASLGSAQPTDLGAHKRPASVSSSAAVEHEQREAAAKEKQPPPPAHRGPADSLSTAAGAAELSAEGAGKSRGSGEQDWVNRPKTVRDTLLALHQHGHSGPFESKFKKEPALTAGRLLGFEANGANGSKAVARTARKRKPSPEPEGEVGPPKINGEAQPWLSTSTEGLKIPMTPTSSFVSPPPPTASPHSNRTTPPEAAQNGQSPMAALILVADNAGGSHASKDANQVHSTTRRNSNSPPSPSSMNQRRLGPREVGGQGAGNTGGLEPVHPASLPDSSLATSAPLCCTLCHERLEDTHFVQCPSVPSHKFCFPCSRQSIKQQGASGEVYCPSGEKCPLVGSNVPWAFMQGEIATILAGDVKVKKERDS

Chain of UniProt Q86YH2 (Q86YH2 whole entry): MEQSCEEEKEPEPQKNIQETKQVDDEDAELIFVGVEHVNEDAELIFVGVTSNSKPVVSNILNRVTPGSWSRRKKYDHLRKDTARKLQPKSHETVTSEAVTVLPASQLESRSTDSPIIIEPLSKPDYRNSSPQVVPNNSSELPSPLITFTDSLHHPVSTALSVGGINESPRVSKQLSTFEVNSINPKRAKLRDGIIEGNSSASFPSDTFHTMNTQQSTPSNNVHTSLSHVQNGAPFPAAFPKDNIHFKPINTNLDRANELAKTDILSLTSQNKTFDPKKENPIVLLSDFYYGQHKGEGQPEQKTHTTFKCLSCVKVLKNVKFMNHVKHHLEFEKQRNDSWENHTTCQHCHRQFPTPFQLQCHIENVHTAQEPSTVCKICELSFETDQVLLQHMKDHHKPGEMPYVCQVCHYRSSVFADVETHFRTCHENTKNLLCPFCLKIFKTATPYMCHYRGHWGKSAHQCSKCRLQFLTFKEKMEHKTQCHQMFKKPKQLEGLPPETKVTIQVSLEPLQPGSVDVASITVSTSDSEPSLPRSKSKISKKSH
Chain of UniProt O75925 (O75925 whole entry): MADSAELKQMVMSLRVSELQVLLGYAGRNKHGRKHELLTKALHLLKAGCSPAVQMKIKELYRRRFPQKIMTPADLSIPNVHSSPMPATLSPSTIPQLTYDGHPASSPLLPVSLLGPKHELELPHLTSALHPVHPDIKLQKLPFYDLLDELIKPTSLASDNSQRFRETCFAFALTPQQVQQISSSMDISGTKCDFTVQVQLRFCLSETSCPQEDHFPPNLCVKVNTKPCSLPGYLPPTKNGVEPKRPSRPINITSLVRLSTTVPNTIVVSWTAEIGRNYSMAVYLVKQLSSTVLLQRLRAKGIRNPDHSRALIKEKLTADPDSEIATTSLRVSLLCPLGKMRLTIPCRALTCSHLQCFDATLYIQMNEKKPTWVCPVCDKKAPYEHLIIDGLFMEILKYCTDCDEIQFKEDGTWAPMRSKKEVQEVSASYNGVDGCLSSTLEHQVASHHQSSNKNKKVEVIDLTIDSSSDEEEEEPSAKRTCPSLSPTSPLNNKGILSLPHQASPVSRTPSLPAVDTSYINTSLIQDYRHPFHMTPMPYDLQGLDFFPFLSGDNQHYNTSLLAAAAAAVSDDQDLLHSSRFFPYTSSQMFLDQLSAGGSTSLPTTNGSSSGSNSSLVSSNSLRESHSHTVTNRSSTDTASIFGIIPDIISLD
Chain of UniProt O75928 (O75928 whole entry): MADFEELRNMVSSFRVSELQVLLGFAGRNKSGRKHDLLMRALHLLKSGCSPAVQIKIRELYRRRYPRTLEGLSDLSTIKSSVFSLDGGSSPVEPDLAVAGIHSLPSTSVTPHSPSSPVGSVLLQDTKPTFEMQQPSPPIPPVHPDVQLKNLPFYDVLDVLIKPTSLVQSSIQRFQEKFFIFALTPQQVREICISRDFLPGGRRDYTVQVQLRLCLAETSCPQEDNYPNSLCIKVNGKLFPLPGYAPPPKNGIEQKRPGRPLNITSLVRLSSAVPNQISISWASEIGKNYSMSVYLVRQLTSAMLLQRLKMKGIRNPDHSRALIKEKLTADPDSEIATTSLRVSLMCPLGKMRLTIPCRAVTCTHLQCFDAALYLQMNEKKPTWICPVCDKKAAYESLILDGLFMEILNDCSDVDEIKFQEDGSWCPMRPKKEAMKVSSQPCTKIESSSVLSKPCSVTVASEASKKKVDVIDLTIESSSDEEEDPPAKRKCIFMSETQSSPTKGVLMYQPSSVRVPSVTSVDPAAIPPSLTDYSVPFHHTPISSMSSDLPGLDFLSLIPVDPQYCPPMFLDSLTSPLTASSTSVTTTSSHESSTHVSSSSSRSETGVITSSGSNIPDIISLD
Chain of UniProt Q8WXI9 (Q8WXI9 whole entry): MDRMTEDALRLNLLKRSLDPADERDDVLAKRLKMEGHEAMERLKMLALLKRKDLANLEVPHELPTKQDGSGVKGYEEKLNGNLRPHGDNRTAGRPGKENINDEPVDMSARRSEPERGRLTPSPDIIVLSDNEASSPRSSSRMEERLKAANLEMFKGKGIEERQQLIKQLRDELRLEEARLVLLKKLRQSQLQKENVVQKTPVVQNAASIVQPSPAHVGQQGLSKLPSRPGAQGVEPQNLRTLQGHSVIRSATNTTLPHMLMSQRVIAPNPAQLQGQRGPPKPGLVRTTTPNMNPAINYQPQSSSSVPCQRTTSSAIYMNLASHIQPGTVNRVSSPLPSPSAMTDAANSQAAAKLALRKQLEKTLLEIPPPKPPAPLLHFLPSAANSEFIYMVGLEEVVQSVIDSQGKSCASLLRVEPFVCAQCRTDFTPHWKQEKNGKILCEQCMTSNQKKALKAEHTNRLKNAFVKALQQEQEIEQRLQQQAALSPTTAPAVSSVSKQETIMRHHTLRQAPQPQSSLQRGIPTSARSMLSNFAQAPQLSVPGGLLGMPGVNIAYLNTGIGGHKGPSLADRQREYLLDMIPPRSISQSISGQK
Chain of UniProt Q9UPN9 (Q9UPN9 whole entry): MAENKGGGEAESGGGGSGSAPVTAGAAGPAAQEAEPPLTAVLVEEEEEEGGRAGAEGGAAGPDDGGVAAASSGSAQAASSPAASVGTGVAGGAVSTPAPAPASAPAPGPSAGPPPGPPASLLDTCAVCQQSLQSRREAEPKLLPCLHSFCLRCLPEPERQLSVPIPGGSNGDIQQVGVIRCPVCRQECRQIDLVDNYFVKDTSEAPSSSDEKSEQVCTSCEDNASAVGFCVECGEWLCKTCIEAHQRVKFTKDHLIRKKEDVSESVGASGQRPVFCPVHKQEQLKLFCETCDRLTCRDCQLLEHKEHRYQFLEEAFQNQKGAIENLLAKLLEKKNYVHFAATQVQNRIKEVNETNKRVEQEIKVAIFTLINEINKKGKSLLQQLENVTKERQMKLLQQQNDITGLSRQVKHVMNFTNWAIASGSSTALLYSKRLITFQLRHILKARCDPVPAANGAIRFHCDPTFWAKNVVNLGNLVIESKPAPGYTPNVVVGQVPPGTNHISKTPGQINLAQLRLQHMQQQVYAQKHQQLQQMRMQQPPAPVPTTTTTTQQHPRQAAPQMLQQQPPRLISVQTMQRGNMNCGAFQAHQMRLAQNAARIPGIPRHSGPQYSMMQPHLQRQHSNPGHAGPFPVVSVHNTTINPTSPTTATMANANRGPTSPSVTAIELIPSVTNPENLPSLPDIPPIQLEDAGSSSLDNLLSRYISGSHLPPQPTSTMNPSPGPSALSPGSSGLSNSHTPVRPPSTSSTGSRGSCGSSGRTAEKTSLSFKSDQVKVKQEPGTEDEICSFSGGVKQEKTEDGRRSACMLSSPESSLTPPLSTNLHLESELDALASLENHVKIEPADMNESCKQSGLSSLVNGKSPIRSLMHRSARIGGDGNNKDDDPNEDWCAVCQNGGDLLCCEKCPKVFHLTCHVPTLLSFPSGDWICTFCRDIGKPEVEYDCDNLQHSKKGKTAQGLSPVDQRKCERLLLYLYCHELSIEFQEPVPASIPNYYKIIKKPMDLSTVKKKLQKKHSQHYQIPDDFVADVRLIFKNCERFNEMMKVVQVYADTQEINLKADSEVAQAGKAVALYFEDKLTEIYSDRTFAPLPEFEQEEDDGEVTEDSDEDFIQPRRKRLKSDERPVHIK
Chain of UniProt Q13573 (Q13573 whole entry): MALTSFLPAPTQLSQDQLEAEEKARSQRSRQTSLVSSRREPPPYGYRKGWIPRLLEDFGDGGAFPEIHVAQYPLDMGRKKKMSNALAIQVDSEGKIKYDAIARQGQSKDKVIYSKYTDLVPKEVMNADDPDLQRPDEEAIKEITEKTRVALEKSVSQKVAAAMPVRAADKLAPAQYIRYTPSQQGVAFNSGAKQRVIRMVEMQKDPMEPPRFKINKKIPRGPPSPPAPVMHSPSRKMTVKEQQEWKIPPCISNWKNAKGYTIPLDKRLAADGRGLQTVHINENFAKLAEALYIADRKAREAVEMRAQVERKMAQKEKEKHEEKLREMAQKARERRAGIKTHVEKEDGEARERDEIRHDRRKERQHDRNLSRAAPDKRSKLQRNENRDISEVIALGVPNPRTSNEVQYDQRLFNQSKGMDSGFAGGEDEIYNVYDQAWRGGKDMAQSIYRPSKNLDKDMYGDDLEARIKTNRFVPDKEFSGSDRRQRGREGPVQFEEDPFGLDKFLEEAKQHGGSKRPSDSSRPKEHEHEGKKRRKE

## FLTbID-PML^WT (from UniProt P29590-12) 3MAS (K65; K160; K490 and SIM; replacement residues not printed)
HSPA8
  other: Log2 LFQ ratio (TurboID-PML WT / TurboID-PML 3MAS): 0.55 Log2 LFQ
GATAD2B
  other: Log2 LFQ ratio (TurboID-PML WT / TurboID-PML 3MAS): 1.4 Log2 LFQ
RAD54L2
  other: Log2 LFQ ratio (TurboID-PML WT / TurboID-PML 3MAS): 5.4 Log2 LFQ
FUS
  other: Log2 LFQ ratio (TurboID-PML WT / TurboID-PML 3MAS): 4.5 Log2 LFQ
PIAS2
  other: Log2 LFQ ratio (TurboID-PML WT / TurboID-PML 3MAS): 2.3 Log2 LFQ
EXOSC9
  other: Log2 LFQ ratio (TurboID-PML WT / TurboID-PML 3MAS): 1.8 Log2 LFQ
ZNF280B
  other: Log2 LFQ ratio (TurboID-PML WT / TurboID-PML 3MAS): 4.8 Log2 LFQ
DAXX
  other: Log2 LFQ ratio (TurboID-PML WT / TurboID-PML 3MAS): 2.3 Log2 LFQ
SIMC1
  other: Log2 LFQ ratio (TurboID-PML WT / TurboID-PML 3MAS): 5.9 Log2 LFQ
RBM22
  other: Log2 LFQ ratio (TurboID-PML WT / TurboID-PML 3MAS): 3.5 Log2 LFQ
XAB2
  other: Log2 LFQ ratio (TurboID-PML WT / TurboID-PML 3MAS): 0.1 Log2 LFQ
PIAS1
  other: Log2 LFQ ratio (TurboID-PML WT / TurboID-PML 3MAS): 3.5 Log2 LFQ
SNW1
  other: Log2 LFQ ratio (TurboID-PML WT / TurboID-PML 3MAS): 0.58 Log2 LFQ
PIAS4
  other: Log2 LFQ ratio (TurboID-PML WT / TurboID-PML 3MAS): 3.7 Log2 LFQ
TRIM24
  other: Log2 LFQ ratio (TurboID-PML WT / TurboID-PML 3MAS): 3.4 Log2 LFQ
TRIM33
  other: Log2 LFQ ratio (TurboID-PML WT / TurboID-PML 3MAS): 3.4 Log2 LFQ
PIAS3
  other: Log2 LFQ ratio (TurboID-PML WT / TurboID-PML 3MAS): 3.6 Log2 LFQ
ZNF280A
  other: Log2 LFQ ratio (TurboID-PML WT / TurboID-PML 3MAS): 2.9 Log2 LFQ
IRF2BP2
  other: Log2 LFQ ratio (TurboID-PML WT / TurboID-PML 3MAS): 0.15 Log2 LFQ

From article PMC8602451
